Patent US20230242602

Tests used:
[1] = tested on: ZFP-TF 65918.T2A.57890 (two co-expressed ZFPs) (synthetic construct); assay: cell_activity; details: htau mouse hippocampus, 3E9 VG per hemisphere
[2] = tested on: ZFP-TF 73133 (R→Q variant anti-tau ZFP-KRAB) (synthetic construct); assay: cell_activity; details: up to, htau mouse hippocampus, AAV9 highest dose, 3 and 6 months

Row | Substance | activity (% reduction of human tau mRNA) [1] | activity (% reduction of human tau mRNA) [2] | activity (% reduction of mouse tau mRNA) [1]
1 | human MAPT gene target region (around TSS) | > 50 | 93 | –
2 | mouse Mapt gene | – | – | > 50
